This is an account of results in patent US6518016.

This data set has as its target factor Xa-activated factor V(Q506) (UniProt P12259).
UniProt P12259, sequence (P12259 29-737 R534Q, chain 1 of 2): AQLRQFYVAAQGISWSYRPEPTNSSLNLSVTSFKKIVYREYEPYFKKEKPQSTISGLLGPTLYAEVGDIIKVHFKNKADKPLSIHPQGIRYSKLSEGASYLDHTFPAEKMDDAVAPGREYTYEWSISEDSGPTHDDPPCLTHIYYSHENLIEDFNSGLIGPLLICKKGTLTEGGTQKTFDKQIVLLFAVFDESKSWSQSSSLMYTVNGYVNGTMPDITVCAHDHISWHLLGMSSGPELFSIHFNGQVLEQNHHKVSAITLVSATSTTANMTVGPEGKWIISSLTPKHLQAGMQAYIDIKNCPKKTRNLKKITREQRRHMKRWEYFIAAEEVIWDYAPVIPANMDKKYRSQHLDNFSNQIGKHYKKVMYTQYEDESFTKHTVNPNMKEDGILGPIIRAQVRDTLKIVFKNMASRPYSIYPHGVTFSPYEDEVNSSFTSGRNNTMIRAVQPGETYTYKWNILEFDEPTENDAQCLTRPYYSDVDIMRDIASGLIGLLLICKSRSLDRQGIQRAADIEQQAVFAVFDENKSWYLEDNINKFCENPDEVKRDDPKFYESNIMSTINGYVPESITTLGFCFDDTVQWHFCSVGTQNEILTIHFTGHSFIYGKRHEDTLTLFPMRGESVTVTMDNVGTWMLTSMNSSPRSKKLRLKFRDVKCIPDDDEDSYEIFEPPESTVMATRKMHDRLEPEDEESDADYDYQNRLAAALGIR
UniProt P12259, sequence (P12259 1047-2224, chain 2 of 2): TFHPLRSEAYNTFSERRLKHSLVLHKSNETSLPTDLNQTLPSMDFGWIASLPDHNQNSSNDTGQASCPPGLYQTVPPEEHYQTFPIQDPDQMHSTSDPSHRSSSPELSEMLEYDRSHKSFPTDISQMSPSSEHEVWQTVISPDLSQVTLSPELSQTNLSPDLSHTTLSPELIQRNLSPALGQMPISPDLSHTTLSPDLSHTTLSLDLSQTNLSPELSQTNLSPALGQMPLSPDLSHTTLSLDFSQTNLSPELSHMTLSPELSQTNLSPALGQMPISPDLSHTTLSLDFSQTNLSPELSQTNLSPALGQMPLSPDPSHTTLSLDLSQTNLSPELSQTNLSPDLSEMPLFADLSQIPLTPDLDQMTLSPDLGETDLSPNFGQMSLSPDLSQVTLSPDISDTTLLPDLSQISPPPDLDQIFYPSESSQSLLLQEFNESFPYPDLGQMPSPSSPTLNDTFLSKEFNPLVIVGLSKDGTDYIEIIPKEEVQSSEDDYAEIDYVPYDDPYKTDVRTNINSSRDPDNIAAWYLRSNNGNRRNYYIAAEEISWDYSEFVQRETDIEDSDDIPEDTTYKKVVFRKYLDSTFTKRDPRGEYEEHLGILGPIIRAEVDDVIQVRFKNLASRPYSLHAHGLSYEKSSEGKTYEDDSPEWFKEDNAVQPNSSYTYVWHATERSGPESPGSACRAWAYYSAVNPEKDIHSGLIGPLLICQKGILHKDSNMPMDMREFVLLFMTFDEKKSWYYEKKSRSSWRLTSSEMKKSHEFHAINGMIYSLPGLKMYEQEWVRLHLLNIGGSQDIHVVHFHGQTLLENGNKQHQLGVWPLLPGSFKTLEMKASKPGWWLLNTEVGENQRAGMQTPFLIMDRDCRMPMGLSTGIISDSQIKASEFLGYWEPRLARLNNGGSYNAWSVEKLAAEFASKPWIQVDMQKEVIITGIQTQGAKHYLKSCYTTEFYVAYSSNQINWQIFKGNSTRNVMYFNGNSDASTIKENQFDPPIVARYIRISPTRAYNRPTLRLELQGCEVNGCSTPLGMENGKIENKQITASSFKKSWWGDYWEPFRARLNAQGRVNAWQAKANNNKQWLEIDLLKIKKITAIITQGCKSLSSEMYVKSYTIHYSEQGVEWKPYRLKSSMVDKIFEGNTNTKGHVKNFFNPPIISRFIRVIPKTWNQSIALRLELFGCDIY

As to activated protein C (APC), the “inactivation of factor Va activity by APC (factor Va activity over time after adding 1.9 nM APC)” value is “the replacement of Arg-506 by Gln only prevents the inactivation of the Xa-activated form of factor V by APC”.
